We go through 1 molecule from article PMC3154093 (Science (New York, N.Y.), 2011).

As usually defined, the Kd is the concentration at which binding is half-saturated. Low readings indicate a tighter complex, high ones a looser complex.

The target of assay [1] is Neurocan-alkaline phosphatase (UniProt P55066 23-1268, chondroitin sulfate glycosaminoglycan chains). Description: solid-phase binding assay.
For the next assay, the target named is T1, glypican-2-AP (UniProt Q8BKV1 22-556, heparan sulfate glycosaminoglycan chains).
T1 sequence (looked up): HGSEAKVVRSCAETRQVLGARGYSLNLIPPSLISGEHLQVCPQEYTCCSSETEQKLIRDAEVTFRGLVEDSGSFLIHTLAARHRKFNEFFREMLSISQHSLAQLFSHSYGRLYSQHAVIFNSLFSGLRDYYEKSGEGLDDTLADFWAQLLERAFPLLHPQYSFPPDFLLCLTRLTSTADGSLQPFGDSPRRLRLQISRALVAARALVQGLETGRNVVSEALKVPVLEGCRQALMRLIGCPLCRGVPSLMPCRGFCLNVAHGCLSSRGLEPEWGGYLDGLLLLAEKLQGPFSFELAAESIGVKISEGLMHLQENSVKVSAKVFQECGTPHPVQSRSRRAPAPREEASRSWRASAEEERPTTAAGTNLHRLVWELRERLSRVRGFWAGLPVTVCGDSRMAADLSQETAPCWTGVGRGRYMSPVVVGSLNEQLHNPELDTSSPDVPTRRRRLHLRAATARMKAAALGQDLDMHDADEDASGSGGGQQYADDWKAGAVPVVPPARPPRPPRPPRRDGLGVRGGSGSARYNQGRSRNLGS
In words: solid-phase binding assay.

Sequence of Neurocan-alkaline phosphatase (P55066 23-1268): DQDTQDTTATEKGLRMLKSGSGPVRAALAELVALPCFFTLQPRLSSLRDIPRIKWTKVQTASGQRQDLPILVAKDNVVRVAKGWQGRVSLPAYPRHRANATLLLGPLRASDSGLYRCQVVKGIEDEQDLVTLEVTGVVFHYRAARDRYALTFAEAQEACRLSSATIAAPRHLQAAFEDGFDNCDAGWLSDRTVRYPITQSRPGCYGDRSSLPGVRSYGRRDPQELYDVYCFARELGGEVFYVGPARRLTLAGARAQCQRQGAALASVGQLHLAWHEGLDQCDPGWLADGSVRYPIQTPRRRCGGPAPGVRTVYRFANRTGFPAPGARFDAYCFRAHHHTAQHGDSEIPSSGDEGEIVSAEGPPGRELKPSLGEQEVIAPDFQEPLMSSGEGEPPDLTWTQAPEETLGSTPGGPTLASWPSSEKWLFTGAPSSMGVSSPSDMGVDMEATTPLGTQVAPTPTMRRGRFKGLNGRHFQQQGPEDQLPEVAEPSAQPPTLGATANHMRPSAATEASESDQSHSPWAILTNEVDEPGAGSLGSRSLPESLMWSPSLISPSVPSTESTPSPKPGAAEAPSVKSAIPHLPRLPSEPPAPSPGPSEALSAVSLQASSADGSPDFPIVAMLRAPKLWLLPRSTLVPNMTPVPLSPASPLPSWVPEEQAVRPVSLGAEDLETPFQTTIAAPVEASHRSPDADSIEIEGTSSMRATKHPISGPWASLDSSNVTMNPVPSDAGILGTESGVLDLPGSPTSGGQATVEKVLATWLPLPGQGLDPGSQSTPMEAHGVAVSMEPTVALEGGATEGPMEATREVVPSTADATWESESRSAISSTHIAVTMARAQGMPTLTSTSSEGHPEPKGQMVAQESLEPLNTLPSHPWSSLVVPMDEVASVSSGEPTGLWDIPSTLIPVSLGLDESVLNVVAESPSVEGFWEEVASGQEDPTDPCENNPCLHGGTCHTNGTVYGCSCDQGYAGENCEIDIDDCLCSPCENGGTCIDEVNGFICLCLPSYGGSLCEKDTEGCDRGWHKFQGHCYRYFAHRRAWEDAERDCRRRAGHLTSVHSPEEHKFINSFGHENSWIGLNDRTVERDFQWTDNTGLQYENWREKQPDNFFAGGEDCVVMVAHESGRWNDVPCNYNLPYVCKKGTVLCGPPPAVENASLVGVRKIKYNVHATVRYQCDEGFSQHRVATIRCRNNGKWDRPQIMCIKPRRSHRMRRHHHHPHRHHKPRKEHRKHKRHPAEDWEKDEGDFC

B1: mouse RPTPσ sEcto-Fc (Fc fusion)
chain: EEPPRFIREPKDQIGVSGGVASFVCQATGDPKPRVTWNKKGKKVNSQRFETIDFDESSGAVLRIQPLRTPRDENVYECVAQNSVGEITIHAKLTVLREDQLPPGFPNIDMGPQLKVVERTRTATMLCAASGNPDPEITWFKDFLPVDPSASNGRIKQLRSGALQIESSEETDQGKYECVATNSAGVRYSSPANLYVRVRRVAPRFSILPMSHEIMPGGNVNITCVAVGSPMPYVKWMQGAEDLTPEDDMPVGRNVLELTDVKDSANYTCVAMSSLGVIEAVAQITVKSLPKAPGTPVVTENTATSITVTWDSGNPDPVSYYVIEYKSKSQDGPYQIKEDITTTRYSIGGLSPNSEYEIWVSAVNSIGQGPPSESVVTRTGEQAPASAPRNVQARMLSATTMIVQWEEPVEPNGLIRGYRVYYTMEPEHPVGNWQKHNVDDSLLTTVGSLLEDETYTVRVLAFTSVGDGPLSDPIQVKTQQGVPGQPMNLRAEAKSETSIGLSWSAPRQESVIKYELLFREGDRGREVGRTFDPTTAFVVEDLKPNTEYAFRLAARSPQGLGAFTAVVRQRTLQAISPKNFKVKMIMKTSVLLSWEFPDNYNSPTPYKIQYNGLTLDVDGRTTKKLITHLKPHTFYNFVLTNRGSSLGGLQQTVTARTAFNMLSGKPSVAPKPDNDGFIVVYLPDGQSPVTVQNYFIVMVPLRKSRGGQFPVLLGSPEDMDLEELIQDISRLQRRSLRHSRQLEVPRPYIAARFSILPAVFHPGNQKQYGGFDNRGLEPGHRYVLFVLAVLQKNEPTFAASPFSDPFQLDNPDPQPIVDGEEG
For B1, the dissociation constant Kd was ~21 nM in assay [1] and ~10 nM in the assay with glypican-2-AP.
